Experimental data published in patent publication US12391762B2, “Methods and compositions relating to GLP1R variants” (Twist Bioscience Corporation, priority 2020, dated 2025).

How the values were obtained:
[1] = Insulin Tolerance Test (ITT); assay type: in vivo, mouse; settings: for Area Under the Curve (AUC) in ITT: vs control
Method: Animals. All animal procedures were approved by Institutional Animal Care and Use Committee (IACUC) at the University of California San Francisco and were conducted in accordance with the National Institutes of Health Guide for the Care and Use of laboratory Animals. C57BL/6NHsd (Envigo RMS, LLC) male littermates at 8-10 weeks of age, weighing ˜20-28 grams, were used in all the studies described. The mice were housed in a room that was temperature (22-25 C) and light controlled (12-h: 12-h light/dark cycle starting at 7 AM. The mice were fed with chow diet with 9% fat (PicoLab mouse Diet 20 (#5058), Lab Supply, Fortworth Texas, USA) for the duration of housing at the UCSF animal care facility.
1. mAb administered as a single dose, 15 hours prior to GTT and 21 hours prior to ITT. 2. mAb administered as a double dose, 15 hours prior to GTT and 21 hours prior to ITT plus a second mAb dose 2 hours prior to GTT and ITT. 3. mAb as a single dose 6 hours prior to GTT and ITT. 4. mAb single dose 2 hours prior to GTT and ITT.
Extendin 9-39 Peptide (MedChemExpress, Cat. No.: HY-P0264) were dosed at 1.0 or 0.23 mg/kg at three different administration regimen groups. 1. Extendin administered as a single dose, 21 hours prior to ITT. 2. Extendin administered as a double dose, 21 hours prior to ITT plus a second Extendin dose 2 hours prior to ITT. 3. mAb as a single dose 6 hours prior to ITT.
An Insulin Tolerance Test (ITT) was conducted to assess two different anti-GLP1 mAbs (agonist and antagonist) effect on insulin sensitivity following acute insulin administration. 8 or 10-week old male mice were fasted for 6 hours and body weight was recorded before and after fasting. To avoid circadian variations in mouse blood glucose levels this testing was performed at fixed times. Blood samples were collected by tail nick and baseline glucose was measured prior to insulin injection. Mice were injected, i.p., with a single bolus (0.75 U/Kg body weight) of human insulin (Novolin, Novo Nordisk) and blood glucose levels were measured at 15, 30, 45, 60 and 120 minutes after insulin injection. Blood glucose levels were monitored using a OneTouch Ultra 2 glucose monitor (LifeScan, Inc.).

CHO-parent cells = assay: Flow cytometry binding assay on CHO-parent cells (background binding); parameters: species or system Chinese Hamster; settings: for Bmax CHO Parent: IgG titration
Method: GLP-1R IgG clones were tested in a binding assay coupled to flow cytometry analysis as follows: FLAG-GLP-1R-GFP expressing CHO cells (CHO-GLP-1R) and CHO-parent cells were incubated with 100 nM IgG for 1 h on ice, washed three times and incubated with Alexa 647 conjugated goat-anti-human antibody (1:200) (Jackson ImmunoResearch Laboratories, 109-605-044) for 30 min on ice, followed by three washes, centrifuging to pellet the cells between each washing step. All incubations and washes were in buffer containing PBS+1% BSA. For titrations, IgG was serially diluted 1:3 starting from 100 nM down to 0.046 nM. Cells were analyzed by flow cytometry and hits (a hit is an IgG that specifically binds to CHO-GLP-1R) were identified by measuring the GFP signal against the Alexa 647 signal. Flow cytometry data of binding assays with 100 nM IgG are presented as dot plots. Analyses of binding assays with IgG titrations are presented as binding curves plotting IgG concentrations against MFI (mean fluorescence intensity).

GLP-1R [2] = molecular target: T1, GLP-1R (Homo sapiens, UniProt P43220); assay: cAMP assays (agonist and antagonist mode), GLP-1R over-expressing CHO-K1 cells; assay type: cell-based; parameters: host or cells: CHO-K1; settings: pre-incubation with fixed concentration of IgG (100 nM), then GLP-1 7-36 titration
Method: CAMP assays. GLP-1R IgG clones were tested for their potential effects on GLP-1R signaling by performing cAMP assays obtained from Eurofins DiscoverXX. The technology involved in detecting cAMP levels is a no wash gain-of-signal competitive immunoassay based on Enzyme Fragment Complementation technology. Experiments were designed to test for either agonist or antagonist activity of the IgG clones. To test for agonist activity of the IgGs, cells were stimulated with IgG incubating for 30 min at 37° C. […] Intracellular CAMP levels were detected by following the assay kit instructions.
Target sequence in this assay (P43220 24-463): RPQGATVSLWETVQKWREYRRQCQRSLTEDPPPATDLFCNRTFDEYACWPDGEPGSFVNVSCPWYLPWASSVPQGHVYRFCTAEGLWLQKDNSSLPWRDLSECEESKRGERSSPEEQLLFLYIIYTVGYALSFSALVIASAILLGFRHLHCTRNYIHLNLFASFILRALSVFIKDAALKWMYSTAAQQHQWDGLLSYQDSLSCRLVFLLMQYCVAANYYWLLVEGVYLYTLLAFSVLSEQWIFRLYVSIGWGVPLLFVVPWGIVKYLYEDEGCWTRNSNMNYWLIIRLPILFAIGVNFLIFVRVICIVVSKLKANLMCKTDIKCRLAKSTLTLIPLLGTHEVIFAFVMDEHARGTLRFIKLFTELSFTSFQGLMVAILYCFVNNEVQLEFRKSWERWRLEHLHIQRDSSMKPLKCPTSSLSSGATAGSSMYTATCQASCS

[3] = Rat PK study, ELISA for human IgG in plasma; assay type: in vivo; settings: 10 mg/kg IV, 2-week PK study, beta phase
Method: The rat PK study was done at Charles River Laboratories, One Innovation Dr, 3 Biotech, Worcester, MA 01605. 5 Male Sprague-Dawley rats per group were allowed to acclimate after receiving at test facility for a minimum of 3 days before dosing. […] Serial blood samples were collected via jugular vein cannula with ˜250 ul volume at each time point: pre-dose, 0.0833, 0.25, 0.5, 1, 2, 4, 8, 24, 48, 72, 96, 168, 240 and 336 hours post dose. Blood samples were collected into K2EDTA tubes and stored on wet ice until processed to plasma by centrifugation (3500 rpm for 10 minutes at 5° C.) within 30 minutes of collection. Plasma samples were then transferred into an appropriate tube containing DPP-4 (3.3 μL for 100 μL of plasma) and frozen on dry ice. To measure the human IgG in rat plasma samples, sheep anti-Human IgG (1 mg/mL) was used as coating reagent) (The binding site, Lot No. AU003.M), and goat anti-Human IgG, HRP (H&L) (1 mg/mL) was used as detection reagent) (Bethyl, cat #A80-319P) in an ELISA assay. Stock solutions of human IgG standards and QCs were prepared by spiking human IgG into rat plasma. […] The semi-logarithmic sigmoid calibration curve was obtained by plotting the absorbance response against concentration. Concentrations of analyte in the test samples were determined by computer interpolation from the plot of the calibration curve.

GLP-1R [4] = molecular target: T1, GLP-1R; assay: Ec50; parameters: The full length human GLP-1R gene (UniProt-P43220) with an N-terminal FLAG tag and C-terminal GFP tag; expressed in transfected cells
Source text: Table printed on a drawing sheet, FIG. 16A

GLP-1R [5] = molecular target: T1, GLP-1R; assay: Beta arrestin recruitment assay, GLP-1R overexpressing CHO-K1 cells; assay type: cell-based; parameters: host or cells: CHO-K1; settings: 100 nM IgG pre-incubated 1 hr
Method: Beta arrestin recruitment assy. β-arrestin recruitment assay was obtained from Eurofins DiscoverXX (Cat #93-0300E2) that utilized untagged GLP-1R overexpressing CHO-K1 cells. […] Expanded cells were seeded into 96 well plates at 5,000 cells/well, and the experiment was performed 48 hours after plating cells. […] Add 22.5 uL of detection solution to each well, tap gently and briefly spin down. Then incubate plates at RT for 1 hour in the dark. The plates were then read by a Chemiluminescence plate reader, Molecular Devices SpectraMax® M5, and output relative light units (RLU) data were analyzed using GraphPad Prism™.
Target sequence in this assay (P43220 24-463): as above

[6] = 19+2 hour, GLP1R-3 20 mg/kg, Exendin 1 mg/kg
[7] = 19+2 hours dosing regimen, C57BL/6NHsd mice
[8] = single 6 hour treatment, GLP1R-3 20 mg/kg, Exendin 1.0 and 0.23 mg/kg

Row | Molecule | Area Under the Curve (AUC) in ITT [1, 6] | blood glucose after insulin challenge [1, 7] | Area Under the Curve (AUC) in ITT [1, 8] | Median RL1-H of Parent Singlets (CHO-parent cells; Table 6D, GLP1R-222 variants) | Bmax CHO Parent (CHO-parent cells; Table 6F) | also measured
1 | Exendin 9-39 [reference compound] | significant (p<0.0001) | significantly stabilizes a higher blood glucose | no significant difference |  |  | Area Under the Curve (AUC) in ITT ([1]; 19+2 hour, Exendin 0.23 mg/kg): no significant difference
2 | GLP1R222-012: GLP1R-222 variant, optimized from GLP1R-3 (antibody, V domains shown) VH: QVQLVESGGGVVQPGRSLRLSCAASGFTFNNYGMHWVRQAPGKGLEWVAVISDEGSNKYYADSVKGRFTISRDNSKNTLYLQMNSLRAEDTAVYYCAKHMSMQEGAVTGVGQAAKEFIAWLVKGRVRADLVGDAFDVWGQGTLVTVSS VL: QSVLTQPPSVSAAPGQKVTISCSGSSSNIGNNDVSWYQQLPGTAPKLLIYDDDKRPSGIPDRFSGSKSGTSATLGITGLQTGDEADYYCGTWDTSLSVGEFGGGTKLTVL |  |  |  | 290.5 | 340.6 | 
3 | GLP1R222-052: GLP1R-222 variant, optimized from GLP1R-3 (antibody, V domains shown) VH: QVQLVESGGGVVQPGRSLRLSCAASGFTFNNYPMHWVRQAPGKGLEWVAVISYDESNKYYADSVKGRFTISRDNSKNTLYLQMNSLRAEDTAVYYCAKHMSMQEGAVTGGGQAAKEFIAWLVKGRVRADLVGDAFDVWGQGTLVTVSS VL: QSVLTQPPSVSAAPGQKVTISCSGSSSNIGKRSVSWYQQLPGTAPKLLIYDNNKRASGIPDRFSGSKSGTSATLGITGLQTGDEADYYCVTWDRSLSAGVFGGGTKLTVL |  |  |  | 27565.5 | 47529 | 
4 | GLP1R222-082: GLP1R-222 variant, optimized from GLP1R-3 (antibody, V domains shown) VH: QVQLVESGGGVVQPGRSLRLSCAASGFTFSAYSMHWVRQAPGKGLEWVALISYDATNKYYADSVKGRFTISRDNSKNTLYLQMNSLRAEDTAVYYCAKHMSMQEGAVTGEFQAAKEFIAWLVKGRVRADLVGDAFDVWGQGTLVTVSS VL: QSVLTQPPSVSAAPGQKVTISCSGSSSNIGSKYVSWYQQLPGTAPKLLIYDNNKRPSGIPDRFSGSKSGTSATLGITGLQTGDEADYYCGTWDISPSAWVFGGGTKLTVL |  |  |  | 315 | 305 | 
5 | GLP1R222-090: GLP1R-222 variant, optimized from GLP1R-3 (antibody, V domains shown) VH: QVQLVESGGGVVQPGRSLRLSCAASGFSFSDYGIHWVRQAPGKGLEWVALISYEGSNKYYADSVKGRFTISRDNSKNTLYLQMNSLRAEDTAVYYCAKHMSMQEGAVTGEKQAAKEFIAWLVKGRVRADLVGDAFDVWGQGTLVTVSS VL: QSVLTQPPSVSAAPGQKVTISCSGSSSNIADNYVSWYQQLPGTAPKLLIYDNNKRASGIPDRFSGSKSGTSATLGITGLQTGDEADYYCATWDNRLSAGVFGGGTKLTVL |  |  |  | 432 | 413.4 | 
6 | GLP1R-3: antagonist GLP-1R IgG with GLP-1 motif in CDRH3 (SEQ ID NO 20) (antibody) heavy: QVQLVESGGGVVQPGRSLRLSCAASGFTFSSYGMHWVRQAPGKGLEWVSFISYDESNKYYADSVKGRFTISRDNSKNTLYLQMNSLRAEDTAVYYCAKHMSMQEGAVTGEGQAAKEFIAWLVKGRVRADLVGDAFDVWGQGTLVTVSSASTKGPSVFPLAPCSRSTSESTAALGCLVKDYFPEPVTVSWNSGALTSGVHTFPAVLQSSGLYSLSSVVTVPSSNFGTQTYTCNVDHKPSNTKVDKTVERKCCVECPPCPAPPVAGPSVFLFPPKPKDTLMISRTPEVTCVVVDVSHEDPEVQFNWYVDGVEVHNAKTKPREEQFNSTFRVVSVLTVVHQDWLNGKEYKCKVSNKGLPAPIEKTISKTKGQPREPQVYTLPPSREEMTKNQVSLTCLVKGFYPSDIAVEWESNGQPENNYKTTPPMLDSDGSFFLYSKLTVDKSRWQQGNVFSCSVMHEALHNHYTQKSLSLSPGK light: QSVLTQPPSVSAAPGQKVTISCSGSSSNIADNYVSWYQQLPGTAPKLLIYDNNKRPSGIPDRFSGSKSGTSATLGITGLQTGDEADYYCGTWDNYLGAGVFGGGTKLTVLGQPKAAPSVTLFPPSSEELQANKATLVCLISDFYPGAVTVAWKADSSPVKAGVETTTPSKQSNNKYAASSYLSLTPEQWKSHRSYSCQVTHEGSTVEKTVAPTECS | significant (p<0.0001) | significantly stabilizes a higher blood glucose | significantly (p<0.05) stabilizes | 302.5 |  | antagonist activity: effect on GLP-1 7-36-induced GLP-1R cAMP signaling (GLP-1R [2]): clear dose-dependent inhibition of the CAMP signal; in vivo half-life [3]: ~1 week; Median RL1-H of Parent Singlets (CHO-parent cells; Table 6C, GLP1R-221 variants): 234; Bmax CHO Parent (CHO-parent cells; Table 6E): 268; EC50 (GLP-1R [4]): 3.94 nM; blood glucose after insulin challenge ([1]; single 6 hour dosing regimen, comparator antibody experiment, 20 mg/kg): significantly stabilized a higher blood glucose; blood glucose after insulin challenge ([1]; single 6 hour dosing regimen, compared to Exendin 9-39 or control): significantly stabilizes a higher blood glucose; Area Under the Curve (AUC) in ITT ([1]; single 6 hour treatment, comparator antibody experiment, 20 mg/kg): significantly (p<0.05) stabilized; effect on GLP-1 7-36 induced β-arrestin recruitment (GLP-1R [5]): inhibition of GLP-1 7-36 peptide-induced beta arrestin recruitment
